Data from the supplement of paper PMC7877785.
± gives the uncertainty stated by the source.

Assay: self-splicing fitness, log relative to wild type (ln ratio); higher = more splicing; Tetrahymena group I intron in knt gene, E. coli kanamycin selection, DiMSum; sequences stand for … in CUCUCU…GGAGGGAAAAGUUAUCAGGCAUGCACCUGGUAGCUAGUCUUUAAACCAAUAGAUUGCAUCGGUUUAAAAGGCAAGACCGUCAAAUUGCGGGAAAGGGGUCAACAGCCGUUCAGUACCAAGUCUCAGGGGAAACUUUGAGAUGGCCUUGCAAAGGGUAUGGUAAUAAGCUGACGGACAUGGUCCUAACCACGCAGCCAAGUCCUAAGUCAACAGAUCUUCUGUUGAUAUGGAUGCAGUUCACAGACUAAAUGUCGGUCGGGGAAGAUGUAUUCUUCUCAUAAGAUAUAGUCGGACCUCUCCUUAAUGGGAGCUAGCGGAUGAAGUGAUGCAACACUGGAGCCGCUGGGAACUAAUUUGUAUGCGAAAGUAUAUUGAUUAGUUUUGGAGUACUCGUGGUCG
How it was run: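 Library with all eight P1ex-region intron nucleotides randomised, intron inside the knt kanamycin-resistance gene on pET-22b(+), in E. coli BL21(DE3). Cells grew overnight at 37°C or 30°C on LB agar with or without 25 μg/mL kanamycin (plus 100 μg/mL carbenicillin, 50 μM IPTG, 0.2% rhamnose), in six replicate transformations. Pooled colonies were amplicon-sequenced on Illumina HiSeq 2500. DiMSum fitness is the error-weighted combination of wild-type-normalised replicate fold changes, kanamycin versus none.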

Sequence	self-splicing fitness (ln) (30 °C)	self-splicing fitness (ln) (37 °C)
UCGAAGCAAUAUUACGAGAC	-3.11 ± 0.22	
UCGAAGCAAUAUUACGAUGU	-1.82 ± 0.067	-0.546 ± 0.085
UCGAAGCAAUAUUACGCCAA	-2.4 ± 0.27	-2.2 ± 0.37
UCGAAGCAAUAUUACGCUAC	-2.18 ± 0.26	
UCGAAGCAAUAUUACGGCAU	-3.26 ± 0.2	-1.62 ± 0.24
UCGAAGCAAUAUUACGGCGG	-1.14 ± 0.11	-0.364 ± 0.17
UCGAAGCAAUAUUACGGGGG	-1.86 ± 0.18	-1.39 ± 0.2
UCGAAGCAAUAUUACGGGGU	-4.05 ± 0.21	-2.25 ± 0.17
UCGAAGCAAUAUUACGGGUA	-0.839 ± 0.062	-0.123 ± 0.068
UCGAAGCAAUAUUACGGUGG	-1.82 ± 0.094	-1.55 ± 0.14
UCGAAGCAAUAUUACGUAGC		-2.17 ± 0.31
UCGAAGCAAUAUUACGUCGA	-3.65 ± 0.47	-1.78 ± 0.19
UCGAAGCAAUAUUACGUUGA	-2.05 ± 0.099	-2.63 ± 0.13
UCGCAGCAAUAUUACGAAAC		-3.1 ± 0.35
UCGCAGCAAUAUUACGAACU	-3.13 ± 0.19	-1.69 ± 0.17
UCGCAGCAAUAUUACGAAGC	-3.52 ± 0.27	-2.25 ± 0.25
UCGCAGCAAUAUUACGACGG	-1.15 ± 0.069	-0.0065 ± 0.1
UCGCAGCAAUAUUACGACUG	-1.93 ± 0.14	-2.7 ± 0.25
UCGCAGCAAUAUUACGAGAA	-1.41 ± 0.34	-0.949 ± 0.21
UCGCAGCAAUAUUACGAUAU	-3.68 ± 0.3	-2.41 ± 0.27
UCGCAGCAAUAUUACGCGAG	-2.85 ± 0.15	-2.56 ± 0.15
UCGCAGCAAUAUUACGCUUU	-3.69 ± 0.18	-1.84 ± 0.13
UCGCAGCAAUAUUACGGCUG	-3.46 ± 0.24	-2.45 ± 0.32

Sequence	self-splicing fitness (ln) (30 °C)	self-splicing fitness (ln) (37 °C)
UCGCAGCAAUAUUACGUCCA	-0.754 ± 0.086	-0.0511 ± 0.094
UCGCAGCAAUAUUACGUGAC	-5.1 ± 0.38	-2.41 ± 0.26
UCGCAGCAAUAUUACGUUGA	-3.11 ± 0.23	-1.06 ± 0.14
UCGGAGCAAUAUUACGAUCG	-1.22 ± 0.15	-0.115 ± 0.15
UCGGAGCAAUAUUACGCAUG	-3.6 ± 0.22	-1.38 ± 0.17
UCGGAGCAAUAUUACGCCGA	-3.12 ± 0.32	
UCGGAGCAAUAUUACGCUUU		-2.3 ± 0.49
UCGGAGCAAUAUUACGGAUA	-2.51 ± 0.35	-1.96 ± 0.29
UCGGAGCAAUAUUACGGAUC	-3.21 ± 0.43	
UCGGAGCAAUAUUACGGUAG	-3.8 ± 0.35	-2.8 ± 0.28
UCGGAGCAAUAUUACGGUGU	-3.4 ± 0.31	-1.7 ± 0.37
UCGGAGCAAUAUUACGUACC	-2.84 ± 0.48	
UCGGAGCAAUAUUACGUCAC	-3.68 ± 0.43	-2.68 ± 0.36
UCGGAGCAAUAUUACGUCAG		-1.11 ± 0.34
UCGGAGCAAUAUUACGUCUG	-2.56 ± 0.19	-0.878 ± 0.24
UCGGAGCAAUAUUACGUGCG	-2.06 ± 0.093	-1.32 ± 0.11
UCGGAGCAAUAUUACGUUAC	-1.87 ± 0.3	
UCGGAGCAAUAUUACGUUGA	-2.58 ± 0.25	-1.22 ± 0.16
UCGGAGCAAUAUUACGUUUU	-3.91 ± 0.4	
UCGUAGCAAUAUUACGACUA	-1.41 ± 0.19	-0.0995 ± 0.15
UCGUAGCAAUAUUACGAUCU	-1.92 ± 0.3	-1.67 ± 0.37
UCGUAGCAAUAUUACGAUGA	-0.769 ± 0.12	-0.601 ± 0.13
UCGUAGCAAUAUUACGCAAU	-3.7 ± 0.47	-1.99 ± 0.31
